These results are taken from paper doi:10.1101/495820.

The series addresses T1, SmcH-CC100 (Bacillus subtilis, UniProt P51834 400-774).
T1 sequence: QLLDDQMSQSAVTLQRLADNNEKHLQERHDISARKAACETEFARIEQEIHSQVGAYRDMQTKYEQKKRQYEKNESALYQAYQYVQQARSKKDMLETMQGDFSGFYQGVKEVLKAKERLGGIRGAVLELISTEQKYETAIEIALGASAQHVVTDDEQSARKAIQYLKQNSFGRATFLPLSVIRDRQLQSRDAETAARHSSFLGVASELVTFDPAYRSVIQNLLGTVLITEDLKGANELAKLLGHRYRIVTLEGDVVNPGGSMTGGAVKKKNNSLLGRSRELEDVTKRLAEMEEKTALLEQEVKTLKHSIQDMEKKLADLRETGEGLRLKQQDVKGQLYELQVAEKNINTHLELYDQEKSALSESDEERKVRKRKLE
The series is described as follows: fluorescence anisotropy.

B1: 40 bp random-sequence dsDNA (dsDNA)
DNA 1: TTAGTTGTTCGTAGTGCTCGTCTGGCTCTGGATTACCCGC
DNA 2: GCGGGTAATCCAGAGCCAGACGAGCACTACGAACAACTAA
As for B1, the binding result was “binds”.
